The values below come from US20110275699.

The series addresses bacterially expressed USF-1, P22415.

Sequence of bacterially expressed USF-1, P22415 (P22415 whole entry, looked up): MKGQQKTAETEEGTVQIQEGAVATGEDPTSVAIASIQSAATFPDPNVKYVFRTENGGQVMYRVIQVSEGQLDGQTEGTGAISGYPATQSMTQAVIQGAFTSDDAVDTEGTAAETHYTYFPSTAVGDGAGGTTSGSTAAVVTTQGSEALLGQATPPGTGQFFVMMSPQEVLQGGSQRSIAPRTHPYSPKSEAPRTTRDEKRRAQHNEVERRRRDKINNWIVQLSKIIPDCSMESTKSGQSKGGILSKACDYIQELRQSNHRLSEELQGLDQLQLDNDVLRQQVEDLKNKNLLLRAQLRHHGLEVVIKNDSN

B1: P/CAF (Upstate), recombinant/purified enzyme (protein)
chain: MLEEEVYSQNSPIWDQDFLSASSRTSQLGIQTVINPPPVAGTISYNSTSSSLEQPNAGSSSPACKASSGLEANPGEKRKMTDSHVLEEAKKPRVMGDIPMELINEVMSTITDPAAMLGPETNFLSAHSARDEAARLEERRGVIEFHVVGNSLNQKPNKKILMWLVGLQNVFSHQLPRMPKEYITRLVFDPKHKTLALIKDGRVIGGICFRMFPSQGFTEIVFCAVTSNEQVKGYGTHLMNHLKEYHIKHDILNFLTYADEYAIGYFKKQGFSKEIKIPKTKYVGYIKDYEGATLMGCELNPRIPYTEFSVIIKKQKEIIKKLIERKQAQIRKVYPGLSCFKDGVRQIPIESIPGIRETGWKPSGKEKSKEPRDPDQLYSTLKSILQQVKSHQSAWPFMEPVKRTEAPGYYEVIRFPMDLKTMSERLKNRYYVSKKLFMADLQRVFTNCKEYNPPESEYYKCANILEKFFFSKIKEAGLIDK
Turning to B1, the “in vitro acetylation of USF-1” value is “USF-1 was acetylated in vitro by P/CAF (lane 3), and acetylation was not detected in the absence of P/CAF or acetyl CoA (lane 1 and 2)”.
